This is an account of results in the Immune Epitope Database (IEDB).

pKd: −log10 of the molar value.

One experiment has as its target HLA-C*03:03. Put plainly: IEDB peptide-MHC binding, purified MHC/direct/fluorescence; filed as Kd, often an IC50 or EC50 that approximates it; ≥ and ≤ were set here for values at or beyond the usual limits of such assays. The settings on record: source organism: Clostridium novyi NT.
The target in another experiment is HLA-C*05:01. The description is as above. The settings on record: source organism: Clostridium novyi NT.
Another experiment concerns the target HLA-A*32:15. Kind of experiment: IEDB peptide-MHC binding, purified MHC/competitive/fluorescence; filed as Kd, often an IC50 or EC50 that approximates it; ≥ and ≤ were set here for values at or beyond the usual limits of such assays. The settings on record: source organism: Clostridium novyi NT.
The next experiment addresses HLA-C*06:02. The experiment is described as above. The settings on record: source organism: Clostridium novyi NT.
The target in a further experiment is HLA-B*27:20. The description is as above. The settings on record: source organism: Clostridium novyi NT.
Another experiment addresses HLA-B*45:06. Described as above. The settings on record: source organism: Clostridium novyi NT.
The target in a further experiment is HLA-C*14:02. The description is as above. The settings on record: source organism: Clostridium novyi NT.
Experiment [1] concerns the target HLA-B*46:01. The experiment is described as above. The settings on record: source organism: Clostridium novyi NT.
For a further experiment, the target named is HLA-A*32:07. The description is as above. The settings on record: source organism: Clostridium novyi NT.
A further experiment deals with HLA-B*83:01. The experiment is described as above. The settings on record: source organism: Clostridium novyi NT.
The target of the next experiment is HLA-B*15:42. The description is as above. The settings on record: source organism: Clostridium novyi NT.
A further experiment concerns the target HLA-A*68:23. The experiment is described as above. The settings on record: source organism: Clostridium novyi NT.
The target of a further experiment is HLA-B*27:03. Kind of experiment: IEDB peptide-MHC binding, purified MHC/direct/fluorescence; filed as Kd, often an IC50 or EC50 that approximates it; ≥ and ≤ were set here for values at or beyond the usual limits of such assays.
The next experiment deals with HLA-A*03:01. The experiment is described as above.
The next experiment deals with HLA-A*02:12. The experiment is described as above.
Experiment [2] deals with HLA-B*46:01. Described as above.
The target of a further experiment is HLA-B*15:17. The description is as above.
Another experiment deals with HLA-B*57:01. Described as above.
A further experiment concerns the target HLA-A*02:06. The experiment is described as above.
The target of the next experiment is HLA-A*26:01. The description is as above.
A further experiment concerns the target HLA-A*02:01. The description is as above.
The target in the next experiment is HLA-B*51:01. The description is as above.
In another experiment the target is HLA-B*08:01. The description is as above. The settings on record: source organism: Influenza A virus (A/camel/Mongolia/1982(H1N1)).
The next experiment deals with HLA-B*58:01. The description is as above. The settings on record: source organism: Influenza A virus (A/camel/Mongolia/1982(H1N1)).
The target of the next experiment is HLA-A*11:01. The experiment is described as above. The settings on record: source organism: Influenza A virus (A/camel/Mongolia/1982(H1N1)).
The next experiment addresses HLA-A*02:11. The description is as above.
For the next experiment, the target named is HLA-A*31:01. Described as above. The settings on record: source organism: Influenza A virus (A/camel/Mongolia/1982(H1N1)).
The next experiment deals with HLA-B*40:01. The description is as above. The settings on record: source organism: Influenza A virus (A/camel/Mongolia/1982(H1N1)).
The target in another experiment is HLA-B*07:02. Described as above. The settings on record: source organism: Influenza A virus (A/camel/Mongolia/1982(H1N1)).
The target of a further experiment is HLA-A*24:02. The description is as above. The settings on record: source organism: Influenza A virus (A/camel/Mongolia/1982(H1N1)).
The target of another experiment is HLA-A*02:03. Described as above.
A further experiment deals with HLA-B*18:01. The description is as above.
For a further experiment, the target named is HLA-B*27:05. The experiment is described as above. The settings on record: source organism: Influenza A virus (A/camel/Mongolia/1982(H1N1)).
The next experiment has as its target HLA-B*15:01. The description is as above.
A further experiment has as its target HLA-A*01:01. The experiment is described as above. The settings on record: source organism: Influenza A virus (A/camel/Mongolia/1982(H1N1)).
Another experiment has as its target HLA-B*44:02. The experiment is described as above. The settings on record: source organism: Influenza A virus (A/camel/Mongolia/1982(H1N1)).
A further experiment concerns the target HLA-B*15:09. The description is as above. The settings on record: source organism: Influenza A virus (A/Taiwan/2/2006(H1N1)).
Another experiment deals with HLA-A*29:02. The description is as above. The settings on record: source organism: Bacillus cereus H3081.97.
The target in another experiment is HLA-B*39:01. The experiment is described as above.
A further experiment addresses HLA-A*02:16. Described as above. The settings on record: source organism: Bacillus cereus H3081.97.
A further experiment addresses HLA-A*02:19. Described as above.
A further experiment addresses HLA-A*24:03. The description is as above. The settings on record: source organism: Yersinia enterocolitica subsp. enterocolitica 8081.
The mark [3] stands for this setting: source organism: Cryptosporidium parvum Iowa II.
Setting [4] is: source organism: Influenza A virus (A/camel/Mongolia/1982(H1N1)).
Setting [5] is: source organism: Influenza A virus (A/Taiwan/2/2006(H1N1)).
The mark [6] stands for this setting: source organism: Bacillus cereus H3081.97.
Where [7] appears, read: source organism: Yersinia enterocolitica subsp. enterocolitica 8081.

As usually defined, the pKd is −log10 of the Kd, conventionally taken in molar units. The low end stands for a large Kd, the high end for a small Kd. In the case of ASMDNTSPM, the pKd is not below 9.00 in the experiment with HLA-C*03:03; not above 4.70 in the experiment with HLA-C*05:01; 6.65 in the experiment with HLA-A*32:15; 6.24 with HLA-C*06:02; 6.62 in the experiment with HLA-B*27:20; not above 5.30 in the experiment with HLA-B*45:06. For the same sequence, the negative-log Kd (pKd) in the experiment with HLA-C*14:02 was 7.44; with HLA-B*46:01 [1] it was 8.07; in the experiment with HLA-A*32:07, 7.57; with HLA-B*83:01 it was 6.83; with HLA-B*15:42, not above 5.30; with HLA-A*68:23, 7.53.

As to KQMSQPYAV, the pKd with HLA-B*27:03 (setting [3]) is not above 4.70; in the experiment with HLA-A*03:01 (setting [3]), not above 4.70; with HLA-A*02:12 (setting [3]), not below 9.00; in the experiment with HLA-B*46:01 [2] (setting [3]) it was not above 4.70; with HLA-B*15:17 (setting [3]) it was not above 4.70; in the experiment with HLA-B*57:01 (setting [3]), not above 4.70. Further, the pKd with HLA-A*02:06 (setting [3]) is not below 9.00; with HLA-A*26:01 (setting [3]) it was not above 4.70; with HLA-A*02:01 (setting [3]) it was 8.70; with HLA-B*51:01 (setting [3]), not above 4.70.

As for ELDEIGEDV, the pKd is not above 4.70 in the experiment with HLA-B*08:01; not above 4.70 with HLA-B*58:01; not above 4.70 in the experiment with HLA-A*11:01; not above 4.70 with HLA-A*03:01 (setting [4]); 6.87 with HLA-A*02:11 (setting [5]); not above 4.70 in the experiment with HLA-A*31:01. For the same sequence, the pKd in the experiment with HLA-B*40:01 is not above 4.70; with HLA-A*02:12 (setting [5]), 5.82; with HLA-B*46:01 [2] (setting [4]) it was not above 4.70; with HLA-B*07:02, not above 4.70; with HLA-A*24:02 it was not above 4.70; with HLA-A*02:03 (setting [5]) it was not above 5.30. Besides, the negative logarithm of the Kd (pKd) with HLA-A*02:06 (setting [5]), with HLA-B*18:01 (setting [4]), with HLA-B*27:05, in the experiment with HLA-B*15:01 (setting [4]), in the experiment with HLA-A*01:01 and with HLA-B*44:02 was not above 4.70 in each case. Besides, the pKd was 5.61 with HLA-A*02:01 (source organism: Influenza A virus (A/Puerto Rico/8/34/Mount Sinai(H1N1))) and not above 4.70 with HLA-B*15:09.

In the case of YSTVRDLFL, the pKd with HLA-B*27:03 (setting [6]) is not above 4.70; with HLA-A*03:01 (setting [6]), not above 4.70; with HLA-A*02:11 (setting [6]) it was not above 4.70; with HLA-A*02:12 (setting [6]), not above 4.70; in the experiment with HLA-B*46:01 [2] (setting [6]) it was not above 4.70; with HLA-B*15:17 (setting [6]), not below 9.00. Moreover, the pKd with HLA-B*57:01 (setting [6]), with HLA-A*29:02, with HLA-A*02:03 (setting [6]), with HLA-B*18:01 (setting [6]), with HLA-B*39:01 (setting [6]) and with HLA-B*15:01 (setting [6]) was not above 4.70 in each case. The pKd with HLA-A*26:01 (setting [6]), with HLA-A*02:16, with HLA-A*02:01 (setting [6]), in the experiment with HLA-A*02:19 (setting [6]) and with HLA-B*51:01 (setting [6]) was not above 4.70 each time.

Take YIYDGKVNY: the negative logarithm of the Kd (pKd) is not above 4.70 with HLA-B*27:03 (setting [7]); not above 4.70 with HLA-A*02:11 (setting [7]); not above 4.70 with HLA-A*02:12 (setting [7]); 8.52 with HLA-B*15:17 (setting [7]); not above 4.70 with HLA-B*57:01 (setting [7]); not above 4.70 in the experiment with HLA-B*18:01 (setting [7]). For the same sequence, the negative logarithm of the Kd (pKd) with HLA-B*39:01 (setting [7]), in the experiment with HLA-A*24:03 and with HLA-A*02:19 (setting [7]) was not above 4.70 throughout.
